Measurements reported in paper PMC12012487.
Several values for one entry are separate records, joined by “and”; a condition that tells them apart may be missing. Equal entries are not always repeated.

Key:
[1] = biological target: engineered strepII-tagged H77c-derived soluble native-like E1E2 (Hepatitis C virus genotype 1a, isolate H77 (H77c)); test: mass photometry
[2] = biological target: engineered strepII-tagged H77c-derived soluble native-like E1E2 (hepatitis C virus, strain H77c); test: mass photometry

Substance | relative abundance of the 1:1 E1E2:Ab complex [1] | relative abundance of the 2:1 E1E2:Ab complex [1] | stoichiometry N [1] | stoichiometry N [2] | also measured
AR3C monoclonal antibody | 60% | 40% | 1 E1E2:Ab and 2 E1E2:Ab | – | –
AR4A monoclonal antibody | 60% | 40% | 1 E1E2:Ab and 2 E1E2:Ab | – | –
AR4A/AR3C CamX6 hinge bispecific antibody (CrossMab) | – | – | – | 1 E1E2:Ab | –
AR4A/AR3C IgG1 hinge bispecific antibody | – | – | – | 2 E1E2:Ab | relative abundance of the 2:1 E1E2:Ab complex [2]: 67%; stoichiometry N (E1E2:Ab (2:2 complex)) [2]: 1; stoichiometry N (E1E2:Ab (3:2 complex)) [2]: 1.5
AR4A/AR3C IgG3C- hinge bispecific antibody (CrossMab) | – | – | – | 1 E1E2:Ab | –
